Values of other authors, collected in publication PMC7106946.

Biological target: Asp46 (UniProt position 303, VILFMDRNLEQ)
Assay: NMR

Hedgehog protein autoprocessing domain (HhC) Hint domain, wild type at position 46 (Drosophila melanogaster)
pKa: 5.8
